The record followed here is PMC9308819 (Nature Communications, 2022).

Residue numbers refer to the chain shown, from its start.

In one experiment the target is T1, Rab3A (Homo sapiens (Human), UniProt P20336).
T1 chain: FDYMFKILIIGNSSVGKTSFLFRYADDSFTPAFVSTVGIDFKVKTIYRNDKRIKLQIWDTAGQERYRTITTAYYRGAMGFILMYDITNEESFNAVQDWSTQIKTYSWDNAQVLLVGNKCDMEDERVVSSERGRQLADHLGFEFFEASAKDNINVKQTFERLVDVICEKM
The experiment can be described thus: ITC.

In another experiment the target is T2, Rab3B (Homo sapiens (Human), UniProt P20337).
T2 chain: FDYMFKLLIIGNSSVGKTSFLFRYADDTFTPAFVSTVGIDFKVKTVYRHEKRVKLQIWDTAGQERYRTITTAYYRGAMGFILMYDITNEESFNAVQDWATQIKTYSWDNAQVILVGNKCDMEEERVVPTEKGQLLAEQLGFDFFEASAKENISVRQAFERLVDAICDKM
The experiment can be described thus: ITC. (In general: Isothermal titration calorimetry measures the heat released or taken up as one component is titrated into another.)

For another experiment, the target named is T3, Rab27A (Homo sapiens (Human), UniProt P51159).
T3 chain: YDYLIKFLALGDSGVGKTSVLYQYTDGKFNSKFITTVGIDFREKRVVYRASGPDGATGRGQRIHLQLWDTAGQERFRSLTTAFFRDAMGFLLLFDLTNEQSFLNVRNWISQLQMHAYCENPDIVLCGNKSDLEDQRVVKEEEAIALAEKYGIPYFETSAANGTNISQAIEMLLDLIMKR
The experiment can be described thus: ITC.

The target of the next experiment is T4, Rab3D (Homo sapiens (Human), UniProt O95716).
T4 chain: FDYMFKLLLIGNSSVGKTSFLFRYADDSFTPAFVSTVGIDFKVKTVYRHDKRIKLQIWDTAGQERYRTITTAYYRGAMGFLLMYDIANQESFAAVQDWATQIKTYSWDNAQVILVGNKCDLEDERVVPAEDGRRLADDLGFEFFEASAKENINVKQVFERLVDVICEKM
Put plainly: ITC.

Experiment [1] concerns the target T5, Rep15 W140A (human, UniProt Q6BDI9 1-236, N101D | W140A).
T5 sequence: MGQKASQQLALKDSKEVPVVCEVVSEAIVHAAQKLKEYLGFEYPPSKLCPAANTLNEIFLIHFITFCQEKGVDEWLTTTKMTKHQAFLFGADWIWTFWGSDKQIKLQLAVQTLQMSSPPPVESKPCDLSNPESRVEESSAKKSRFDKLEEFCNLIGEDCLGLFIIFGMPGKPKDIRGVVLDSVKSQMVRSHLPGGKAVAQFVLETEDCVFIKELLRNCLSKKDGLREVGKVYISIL
Put plainly: ITC.

Experiment [2] deals with T6, Rep15 Q85A (human, UniProt Q6BDI9 1-236, N101D | Q85A).
T6 sequence: T5 sequence with Q85A, A140W
Put plainly: ITC.

Experiment [3] deals with T7, Rep15 D158A (human, UniProt Q6BDI9 1-236, N101D | D158A).
T7 sequence: T5 sequence with A140W, D158A
The experiment can be described thus: ITC.

Experiment [4] concerns the target T8, Rep15 L88A (human, UniProt Q6BDI9 1-236, N101D | L88A).
T8 sequence: T5 sequence with L88A, A140W
The experiment can be described thus: ITC.

In another experiment the target is T9, Rep15 V135A (human, UniProt Q6BDI9 1-236, N101D | V135A).
T9 construct: source: E. coli BL21 Codon-Plus(DE3)-RIL, purified
T9 sequence: T5 sequence with V135A, A140W
Put plainly: ITC; 500/600 µM GppNHp/GTP Rab titrated into 50/60 µM Rep15; 20 mM Hepes 8.0, 50 mM NaCl, 1 mM MgCl2, 1 mM TCEP; one-site-binding model. Particulars: both partners purified.

In experiment [5] the target is T10, Rep15 W140A (human, UniProt Q6BDI9 1-236, N101D | W140A).
T10 construct: source: E. coli BL21 Codon-Plus(DE3)-RIL, purified
T10 sequence: T5 sequence
Described as above. The conditions noted are these: both partners purified.

Experiment [6] addresses T11, Rep15 D158A (human, UniProt Q6BDI9 1-236, N101D | D158A).
T11 construct: Limits probably as full-length wild type; source: E. coli BL21 Codon-Plus(DE3)-RIL, purified
T11 sequence: T5 sequence with A140W, D158A
The experiment is described as above. Particulars: both partners purified.

For a further experiment, the target named is T12, Rep15 H84A (human, UniProt Q6BDI9 1-236, N101D | H84A).
T12 construct: Limits probably as full-length wild type; source: E. coli BL21 Codon-Plus(DE3)-RIL, purified
T12 sequence: T5 sequence with H84A, A140W
The description is as above. The conditions noted are these: both partners purified.

The target in experiment [7] is T13, Rep15 Q85A (human, UniProt Q6BDI9 1-236, N101D | Q85A).
T13 construct: Limits probably as full-length wild type; source: E. coli BL21 Codon-Plus(DE3)-RIL, purified
T13 sequence: T5 sequence with Q85A, A140W
The experiment is described as above. The conditions noted are these: both partners purified.

Experiment [8] concerns the target T14, Rep15 L88A (human, UniProt Q6BDI9 1-236, N101D | L88A).
T14 construct: Limits probably as full-length wild type; source: E. coli BL21 Codon-Plus(DE3)-RIL, purified
T14 sequence: T5 sequence with L88A, A140W
Described as above. Particulars: both partners purified.

Experiment [9] addresses T15, Rep15, full length (natural N101D variant) (human, UniProt Q6BDI9 1-236, N101D).
T15 construct: also called full-length Rep15; Rab15 effector protein
T15 sequence (looked up): T5 sequence with A140W
The experiment can be described thus: stopped-flow fluorescence intensity; association; 0.5 µM mant-GppNHp Rab3A mixed with increasing Rep15 (2–14 µM); 25 °C; 20 mM Hepes 8.0, 50 mM NaCl, 1 mM MgCl2, 2 mM DTE; koff from the intercept, KD as koff/kon. The conditions noted are these: both partners purified.

B1: Rep15 (protein)
chain: VPVVCEVVSEAIVHAAQKLKEYLGFEYPPSKLCPAANTLNEIFLIHFITFCQEKGVDEWLTTTKMTKHQAFLFGADWIWTFWGSNKQIKLQLAVQTLQMSSPPPVESKPCDLSNPESRVEESSWKKSRFDKLEEFCNLIGEDCLGLFIIFGMPGKPKDIRGVVLDSVKSQMVRSHLPGGKAVAQFVLETEDCVFIKELLRNCLSKKDGLREVGKVYISIL
The Kd is the constant that tells how readily two partners part at equilibrium. As for B1, the Kd with Rab3A came out at 480 nM; with Rab3B it was 2160 nM; in the experiment with Rab27A, 86200 nM; in the experiment with Rab3D it was 790 nM.

B2: Rab3A, purified, nucleotide-loaded (natural protein, human, UniProt P20336 1-220, looked up)
chain: MASATDSRYGQKESSDQNFDYMFKILIIGNSSVGKTSFLFRYADDSFTPAFVSTVGIDFKVKTIYRNDKRIKLQIWDTAGQERYRTITTAYYRGAMGFILMYDITNEESFNAVQDWSTQIKTYSWDNAQVLLVGNKCDMEDERVVSSERGRQLADHLGFEFFEASAKDNINVKQTFERLVDVICEKMSESLDTADPAVTGAKQGPQLSDQQVPPHQDCAC
notes: Rab3A, human; Loaded with GppNHp (aSEC, ITC) or mant-GppNHp (stopped flow); also called Rab3A_(GppNHp); Rab3A_(mantGppNHp); source: E. coli BL21 Codon-Plus (DE3)-RIL, purified (Ni Sepharose, TEV cleavage, gel filtration)
The term koff denotes a measure of how fast the partners let go of each other. Low readings indicate slow dissociation, high ones fast dissociation. Usually kon stands for a measure of how fast the partners come together. As for B2, the Kd with Rep15 W140A [1] is 400 nM; in the experiment with Rep15 Q85A [2] it was 18500 nM; in the experiment with Rep15 D158A [3], 5590 nM; with Rep15 L88A [4], 9700 nM; in experiment [9] it was 440 to 530 nM. Further, the binding result with Rep15 V135A, with Rep15 W140A [5] and with Rep15 H84A was “binds” in each case. Also, the “fold reduction in affinity against wild-type Rep15” value with Rep15 D158A [6] is 12 fold; in the experiment with Rep15 Q85A [7], greater than 30 fold; in the experiment with Rep15 L88A [8] it was 20 fold. In addition, in experiment [9], the koff is 4.29 s⁻¹. Further, the kon in experiment [9] came to 9.72e+06 M⁻¹ s⁻¹.
